Paper doi:10.1101/2023.07.08.548231
Several values for one entry are separate records, joined by “and”; a condition that tells them apart may be missing. Identical values can stand only once.

Molecular target: H2AK119Ub nucleosome (UniProt P04908)
Assay: cryo-EM structure

Sequence of GST-SSX1 (human SSX1 residues 111-188 with an N-terminal GST tag) (Q16384 111-188): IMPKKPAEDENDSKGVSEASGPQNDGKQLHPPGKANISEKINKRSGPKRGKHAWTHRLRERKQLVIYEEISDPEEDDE

With “GST-SSX1 (human SSX1 residues 111-188 with an N-terminal GST tag) (from UniProt Q16384 111-188) (domain or fragment)” the stoichiometry N (SSX1 per nucleosome) was 2 and 1.
